The results in this text go back to the supplement of paper PMC12042874.

± gives the uncertainty stated by the source.

A short description of this series: amyloid nucleation score (Sup35N fusion, yeast selection) (log enrichment); library NNK3; higher = more nucleation; inactive = no reads after selection. Put shortly: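 Sup35N was fused to peptides of 20 random codons and expressed in psi-negative yeast, which were induced with 100 μM copper sulfate for 24 hours and then grown on medium lacking adenine and uracil for 7 days at 30°C. Plasmid inserts from input and output were sequenced on Illumina. The nucleation score is the DiMSum log enrichment of output over input reads, centred on the mode score of non-aggregating sequences. Sequences with under 100 input reads were left out, and random libraries had three technical output replicates.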
As for FFCFLDYDYSIFEQVNEGLS, the amyloid nucleation score result was “inactive”.

Turning to LVFASSVSSSDLTLCVGSCM, the amyloid nucleation score is -0.594 ± 2.4.

Regarding MKYAFRFCRPSVRWVYDPRL, the amyloid nucleation score result was “inactive”. Regarding SIVDSVQQVSVRWAMYT, the amyloid nucleation score is -0.433 ± 1.8. Under LRYWWLDLTYYL stands “inactive”; under RVWRSNSPGAEKWTLLTKTL, “inactive”.

In turn, DSYSIILCFHKNKLLVLLSP yielded an amyloid nucleation score of 0.156 ± 0.42.

As for FFECSRRSSVLVQMS, the amyloid nucleation score entry was “inactive”.

In the case of IVWEGSSPLVLIKHGICKQR, the amyloid nucleation score result is “inactive”. Regarding HYRYGKHREKMLMSAIVWLS, the amyloid nucleation score entry was “inactive”. Consider FVASDLLFGVRDQSVFSLSQ, for which the amyloid nucleation score result was “inactive”. With IDSAEASCIGCLVRQCADPI, the amyloid nucleation score result was “inactive”.

With SLDFIHRNFVARQCIHNKGH, the amyloid nucleation score entry was “inactive”. Consider YPSGVYKFFAASATCWIM, for which the amyloid nucleation score result is “inactive”. Consider GDFYASGSPVKFVRVGMDEC, for which the amyloid nucleation score entry was “inactive”.

As for IRRWPWYIMCYVLLQSFLSL, the amyloid nucleation score entry was “inactive”. Turning to HNNLLSCYLMAPVFHSMMSE, the amyloid nucleation score result was “inactive”. On to LLLVSLELTRLNSHEWVYVI, for which the amyloid nucleation score result is “inactive”. EVVKLVR: the amyloid nucleation score entry was “inactive”.

Take SIYLCLYREVSTVWGKRSN: the amyloid nucleation score entry is “inactive”. In the case of SCRLWHKRANRVGF, the amyloid nucleation score result was “inactive”. Under EWIGVVNVRNDPPSGC stands “inactive”; under HLKCLGNKACEGRVITHVAD, “inactive”. Under MPNLAFSG stands 0.006 ± 0.3; under ILIYVQML, 0.521 ± 0.22; under LVGVSRRSREGDSTLSPSLG, “inactive”. Take TVEVFNHMRERHNYMS: the amyloid nucleation score entry was “inactive”. As for SSSQTISQGDSGHLHYKVWS, the amyloid nucleation score result was “inactive”. For RKYCYGMSLFTDMTMLVRRK, the amyloid nucleation score entry was “inactive”. For the substance HSLVSLWYGSRCIILSR, the amyloid nucleation score result is “inactive”.

On to DSVNRCFARGILSCLVCL, for which the amyloid nucleation score entry is “inactive”. On to WLSRPLCIIGWASRSMRGSH, for which the amyloid nucleation score result is “inactive”.

With FSGRMVSRIDIIYRRKSVMS, the amyloid nucleation score turned out to be 1.28 ± 0.076. Consider SKECILVLAFDGCSGSSRWY, for which the amyloid nucleation score entry was “inactive”. On to TCIQYSKFLRA, for which the amyloid nucleation score result is “inactive”.

YFRFFTFSNCRDYKDTYPTL had an amyloid nucleation score of 0.972 ± 0.23. To ACYFWFNINIEHAR belongs 1.78 ± 0.11; to VGCRMPVACRTWRDKYALAR, “inactive”. To SWLANRYMGDYIRQWVWDKL belongs -0.932 ± 1.8.

Take KLCTVINRLYLHRGGNSNSQ: the amyloid nucleation score entry is “inactive”. The substance TYSNMCVSDVLCLTLT came in with an amyloid nucleation score of 2.38 ± 0.048. Under RKNAVCICSNL stands “inactive”; under GNNVTHSRDRCSMWYWVHLL, “inactive”; under MAEPTL, “inactive”. Under GFGFRAVMPMLYFEYYGQR stands 0.793 ± 0.12; under LKLRSRITNINILDVRYWIC, “inactive”; under WHCVSFKLNDL, “inactive”. Under SYVCIIYGNDGSLSRCKDDL stands “inactive”; under AWMVFCPCKMCMCRCYL, 1.41 ± 0.073; under TIVTIVAFFNMERYGHFRGD, 0.903 ± 0.11. Turning to LIAMICSLGTYFLIVAFELI, the amyloid nucleation score result was “inactive”. Regarding SNHVWFDLFGEYDASCFCTV, the amyloid nucleation score result is “inactive”. Under HRKIRFGYSL stands “inactive”.
